The DeepSol protein solubility set

test: soluble on expression in E. coli; label from the status in PepcDB or PDB records

Soluble on expression in E. coli, not soluble:
MKGGRNRWVTAQESTLALASKCEQFDPDGITLYVFSGRFKRYENVTSAKVNQIFQENDPSGTTDLAAVLKHATDDYFQRKGAGKTKPNGETILVVTDGEPDDRKAVMRVIIEASRRMDKDEELAISFIQVGSDAQATRFLKVLDDELQGAGAKFDICDTVTMEDMEDLSLSEVLLNAITDLEHHHHHH
MGSDKIHHHHHHMEKLYLKIGNQDEFDICEKVQGLHFLSDDSTPVTTNQFLEISGADGSQFQYATFGKYQVVANFFLEFKSWEDYKLAKHQINRIFSTKKLIRMRTNVESAIVRYVYPNFPEIKPISDGANSSTFSVNFDNPSGYRYSIDRSDELSKVQYGMYLLDNIYPEYRFTDKSFRVYNPSDIAIDPYLGKHDLKIISKFSGNSLKITNTTNGTSWSYNKSSNGSETVLLDGIVTTVNGNPATVNTDYGHIVLNTGWNDIVVSGTNSNDITFSFPFIYI
MDNGWPNLQTLALFVAIVEEGSLGAGARKVGMAQPNASRAIAELEADMKAELLVRHPRGSHPTAAGLALVEHSRDLLQSVQEFTEWVTEGRTEQPLKLHVGASMTIAEALLPAWVADMRTRFPACRVDVSVMNSSQVIEAVQKGHLQLGFIETPHVPVRLHARVVQEDKLIVVISPNHEWANRTGRISLRELSETPLIVREVGSGTREALQELLADYDMAEPIQVLNSNAAVRVVVEAGAGPAVLGELALRDHLALGRLLSVPFEGSGVTRPLTAVWSGPRRLPILAGELVSIASNHI
MHSLGWDIWNAVQPKEFYKGFLRRSIRPDGRKLSEYRDITLRKGPLVTTVDGSANASIGRTVALIGIQPKVIEWKETKKGSARSIVGQHCSLQVEFPSVCHRDIRSGRTLEEALLVKESLENVLEQILERDSFCIVPDKFYWHLQITAYCLSLDGNVIETFLLALYGALLDLQLPVVRASTSGDLLTLDPNQPKVTLPMKKLEDWPWVVPIGLFWNGPSEYYAVLDLSEEEENNMSSIVWIWNSQRGDKLAISKQKVGPLSVNILQEVLQLVKAHIDEVILRLQHGK
KGTVCVTNLSTGSKRLGAIAPNSTMLAVRNSADCLLALQQNHADAVISDDAILSGMIAQDPFTHIVGDPIATEQYAVAFAKPRTGRDTAPMIRQVNSTFERIFRDGTWTRTYNHWFGAYLAPQVHPAVHYREER
MADWVTGKVTKVQNWTDALFSLTVHAPINPFTAGQFTKLGLEIDGERVQRAYSYVNAPDNPNLEFYLVTVPQGKLSPRLAALKPGDEVQVVSDASGFFVLDEVPDCETLWMLATGTAIGPYLSILQYGQDVARFKNLVLVHAARFAADLSYLPLMLELQQRYEGKLRIQTVVSRENVPGSLTGRVPALIENGELEKAVGLPMDKETSHVMLCGNPQMVRDTQQLLKETRQMTKHLRRRPGHMTAEHYW
MGSDKIHHHHHHMLPKYEIIKRDIIEKIESGEFSTGEKVYSEGDLKRKYNVSNTTVVKALNDLVNEGYLIRRQGEGTFVRKNLKHRKVFFSEKLSMSNNEKQKSVEETITLVSEEFTDKEIAQILGDKSGSKALLKLTQIALTNDFPWKIQNRYLFADKLRDDSVKRLIEGASLSDELGLQGNMANLPMTMEVSTILLTKDSDELEPLRIIRKSFGEEDSFSLFNIKRLIRGNDGVPIEYSQSFILSDFYQIEIISE
MSLDFSIPEEYMMLKESMREFVKRELMPLEKTLLERELSLWTEPGHLIPDEDHKRLMQKTKELGFWGLEVDEEFGGQGLGMLAKTLVVEELSKSLVGFSNHGFTLPPDAPNLYYLHECCGPRQREKYFVPYCNGDVDSAMACTEPGAGSDVSGLKTKAVKKGDKWVINGTKSFISKCDYDNVFFIVIAVTDPSASTKDRFTAFLIDREHPGVRIGKEIPVIGPMPTWDLILEDVEVDDDAILGDVGKAFIPLQNRFGVRRIELASSCTGMAERLIQMMIDQANTRITFGQPLAERGTIQNWIADSTMELEQVRWLLYYAAWKSDQGHKDLRIEGASVKVAATEMLTRVADRAIQIHGGLGVSHELGIEYVARHVRLWRIVEGPSEVHRWLVARQLLKEGHHHHHH
MKGIILAGGTGSRLYPITKVTNKHLLPVGRYPMIYHAVYKLKQCDITDIMIITGKEHMGDVVSFLGSGQEFGVSFTYRVQDKAGGIAQALGLCEDFVGNDRMVVILGDNIFSDDIRPYVEEFTNQKEGAKVLLQSVDDPERFGVANIQNRKIIEIEEKPKEPKSSYAVTGIYLYDSKVFSYIKELKPSARGELEITDINNWYLKRGVLTYNEMSGWWTDAGTHVSLQRANALARDINFGKQFNGE
MGSDKIHHHHHHMSVTQIVTSEDILLKLCHSVSHVLSHTSGSRVTHAAMVQNISSTRLKPDLGCFSIFDGGFSGLVVINFSAASAVEIYRRYMLNMGMPESDLAFSHNSDEVGNVMGELMNQILGDFIGKVSKELQTSISQSQPKMLTINKEITISIDANLDEPVIRRVSFMTESNHIFYLEFAMDKTEFVKTREFELDEEFDPDFLIEQHGNTRSPWSQMAGKGIVADDADDLLDELGI
ARFMAVSSELKDDTRTYTVAGQVFFASSDRFMSHFDFREAVERVVIDVTHAHFWDITSVSALDRVVIKFRREGTEVEIKGMNDATRTLVDRFGVHDKPEEVEKLMGGH
RPDKVKLALDKTSYRAGDTLKVTITPPHPGKGLLLVESDKPLYVQAIDANPSTTLEIPVTADWERHDVYVTALVFRGGSASNNTTPARAVGEAYVPMQRKERRVAVGLVVPKQVRPAQSLPVTVSVPELAGKQAHVTISAVDAGILNITGF
MGSDKIHHHHHHMKFFNREKEINKILSIIEGEPNNIYFIYGSLNSGKSTLMREIVVNRLDISKYIPFFIDFRTRNILNVDNFIECLFEVDEKSEIDDFREYAKSLADLLVKGSEEISKYYLGMPIKIPKPFFDKIFNKKDKSADVYQYIEYLFAKLNEKGKKPILIFDELQMIKEITLNGNRKLLWSLFQFLVALTKVQHLCHVFCLSSDSLFIEYVYKTGELEGRADYILVDDFDKQTALKFIDFLAKEILNKKLPKDEKELIYSYVGGKPVLIIKVIDKLRYENLNDILDFMLKDATQKLKYFLNDLDYIKPKVEVGDEVIELKKEDIVKALKLFKDSYEISDSEVAKPIYVYLVKKNILFLNPIEGILKPQSFLIWNAIKRLL
MQLSWKDIPTVAPANDLLDIVLNRTQRKTPTVIRPGFKITRIRAFYMRKVKYTGEGFVEKFEDILKGFPNINDVHPFHRDLMDTLYEKNHYKISLAAISRAKSLVEQVARDYVRLLKFGQSLFQCKQLKRAALGRMATIVKKLRDPLAYLEQVRQHIGRLPSIDPNTRTLLICGYPNVGKSSFLRCITKSDVDVQPYAFTTKSLYVGHFDYKYLRFQAIDTPGILDRPTEEMNNIEMQSIYAIAHLRSCVLYFMDLSEQCGFTIEAQVKLFHSIKPLFANKSVMVVINKTDIIRPEDLDEERAQLLESVKEVPGVEIMTSSCQLEENVMEVRNKACEKLLASRIENKLKSQSRINNVLNKIHVAQPQARDDVKRTPFIPESVKNLKKYDPEDPNRRKLARDIEAENGGAGVFNVNLKDKYLLEDDEWKNDIMPEILDGKNVYDFLDPEIAAKLQALEEEEEKLENEGFYNSDDEEEIYDGFEASEVDDIKEKAAWIRNRQKTMIAEARNRKSLKNKAIMPRSKLTKSFGKMEEHMSTLGHDMSALQDKQNRAARKNRYVERGSDVVFGDQDALTASTENGVKLRQTDRLLDGVADGSMRSKADRMAKMERRERNRHAKQGESDRHNAVSLSKHLFSGKRGVGKTDFR
MQCELCGKEVKNIIKTRVEGVEMNVCEACAKFGMSPKGYSRKPRAVFKNETKQKQAKRPRKDMFDNLKTLVEDYGSLVKEAREKKNMTLEELSRAVGIKESLIHKIERNEIEPEEKYVKILEKALGISFYEEGDLNYETSNEDSEFTLGDFIKVKKRK

Soluble on expression in E. coli, soluble:
DYKDDDDKLAAAQYPVVNTNYGKIRGLRTPLPNEILGPVEQYLGVPYASPPTGERRFQPPEPPSSWTGIRNTTQFAAVCPQHLDERSLLHDMLPIWFTANLDTLMTYVQDQNEDCLYLNIYVPTEDDIHDQNSKKPVMVYIHGGSYMEGTGNMIDGSILASYGNVIVITINYRLGILGFLSTGDQAAKGNYGLLDQIQALRWIEENVGAFGGDPKRVTIFGSGAGASCVSLLTLSHYSEGLFQKAIIQSGTALSSWAVNYQPAKYTRILADKVGCNMLDTTDMVECLRNKNYKELIQQTITPATYHIAFGPVIDGDVIPDDPQILMEQGEFLNYDIMLGVNQGEGLKFVDGIVDNEDGVTPNDFDFSVSNFVDNLYGYPEGKDTLRETIKFMYTDWADKENPETRRKTLVALFTDHQWVAPAVATADLHAQYGSPTYFYAFYHHCQSEMKPSWADSAHGDEVPYVFGIPMIGPTELFSCNFSKNDVMLSAVVMTYWTNFAKTGDPNQPVPQDTKFIHTKPNRFEEVAWSRYNPKDQLYLHIGLKPRVRDHYRATKVAFWLELVPHLHNLNEIFQYVSTTTKVPPPDMT
MSLTELPKEFLEDIEEILKDEYDDFIKSYEESKTTGLRINTLKIDKKKLFDLELFDLNQIPWAEEGFYYDDKIDRPGRNPLHEAGAYYLQEPSAMSVIPKADIKEGEKVLDMCAAPGGKSTYILSKLNDTGLLVSNEINASRIKALGENLERFGARNCIITNTDSNSLRKTFNGYFDKVIIDAPCSGQGMFRKDEVAISDWSYAKVVECQSIQKEIIRDGYKMLKKDGILIYSTCTFSREENEHVINEFISEYPHAELIEMERLWPHKIKGEGHFVAKIKKLEEEECNVKELKIKNLDKEIKDYREFEKKFLKVDFYSNKKNKFYLRGENLYLLPEIYPDTKKLKVLRYGLHLGVLKKNRFEPSHALSHYLKVEDVKNVENFSVQSESILKYLKGDVVNSNDSRGWVLVSVEGIPLGWGKESSGVIKNHYPKGLRKVEGHHHHHH
MLDRFATKQTQEKLKIGVVGVFAIGCLFPLLSDFKRSYPHIDLHISTHNNRVDPAAEGLDYTIRYGGGAWHDTDAQYLCSALMSPLCSPTLASQIQTPADILKFPLLRSYRRDEWALWMQTVGEAPPSPTHNVMVFDSAVTMLEAAQAGMGVAIAPVRMFTHLLSSERIVQPFLTQIDLGSFWITRLQSRPETPAMREFSRWLTGVLHKTSGSHHHHHH
GPLGSTSLVQGLTPPPDFNQCLKNSPDEKFFSDFSNNMGSRKNPDPLATEEVPNQEQIPEEGFIHTQYGQKPEQPSGASAGHRFPQGYHSDKRRLSKASSKARSDDLSV
AITGIFFGSDTGNTENIAKMIQKQLGKDVADVHDIAKSSKEDLEAYDILLLGIPTWYYGEAQCDWDDFFPTLEEIDFNGKLVALFGCGDQEDYAEYFCDALGTIRDIIEPRGATIVGHWPTAGYHFEASKGLADDDHFVGLAIDEDRQPELTAERVEKWVKQISEELHLDEILNA
AIAGSRGVLSIIFDLDNTLIDTAGAGRTAIQKVCELLKSTHVQESHIRDICERFLRKLLQESFDPSEGKTIDDVRIQHWCEALQETPGTDPDPALASRCYYTWKNTRSQALSLSSEVRALLEELQKNYKLLLLTNGDTQTQREKIEAVRCEGLFSLVVVGGDRPEQKPARSIFTHCFESAGVRPQDCIMVGDSLTTDIQGGINAGVRATVWINAGSKSLPQDSVTPDYTLPTVLHLNEVLAQLA
MSLQSSVASGLSLNPEQLAVMAVGSGGVVVSLSAPAETVIVIVEHLDHKEEVIVQGREIVPSMDGHFDTIQELNSRFTESAPREKIEIGNRERPFKLHVVNVGDSRAMLVTRESYAALTRDHVPDDPGELRRIQETGDEGKKDNPSPSPITAKPDVRYFYATWEDVLILHSDGLLAESDRWEEVAGAALQCMESEPRIRGVATCLVQQAYRRGSTDNITALVSTFQKPSLNEGHHHHHH
